Target: KRAS G13D antigen (G13D-RT6, SEQ ID NO: 20) loaded on Lovo-DPA0301:DPB0501 cells (human)
Assay: cell-based or functional assay

Binder | TCR Mut RLU/WT RLU
B8.2.4 TCR mutant β97V-T (TCR, V domains shown) V domain 1: AQKITQTQPGMFVQEKEAVTLDCTYDTSDPSYGLFWYKQPSSGEMIFLIYQGSYDQQNATEGRYSLNFQKARKSANLVISASQLGDSAMYFCAMRERTGTASKLTFGTGTRLQVTL V domain 2: DVKVTQSSRYLVKRTGEKVFLECVQDMDHENMFWYRQDPGLGLRLIYFSYDVKMKEKGDIPEGYSVSREKKERFSLILESASTNQTSMYLCASSQTTPPQHFGDGTRLSILE | 0.98 ratio
B8.2.4 TCR mutant β98P-G (TCR, V domains shown) V domain 1: AQKITQTQPGMFVQEKEAVTLDCTYDTSDPSYGLFWYKQPSSGEMIFLIYQGSYDQQNATEGRYSLNFQKARKSANLVISASQLGDSAMYFCAMRERTGTASKLTFGTGTRLQVTL V domain 2: DVKVTQSSRYLVKRTGEKVFLECVQDMDHENMFWYRQDPGLGLRLIYFSYDVKMKEKGDIPEGYSVSREKKERFSLILESASTNQTSMYLCASSQTVGPQHFGDGTRLSILE | 0.73 ratio
B8.2.4 TCR mutant β98P-W (TCR, V domains shown) V domain 1: AQKITQTQPGMFVQEKEAVTLDCTYDTSDPSYGLFWYKQPSSGEMIFLIYQGSYDQQNATEGRYSLNFQKARKSANLVISASQLGDSAMYFCAMRERTGTASKLTFGTGTRLQVTL V domain 2: DVKVTQSSRYLVKRTGEKVFLECVQDMDHENMFWYRQDPGLGLRLIYFSYDVKMKEKGDIPEGYSVSREKKERFSLILESASTNQTSMYLCASSQTVWPQHFGDGTRLSILE | 0.81 ratio
B8.2.4 TCR mutant β98P-Q (TCR, V domains shown) V domain 1: AQKITQTQPGMFVQEKEAVTLDCTYDTSDPSYGLFWYKQPSSGEMIFLIYQGSYDQQNATEGRYSLNFQKARKSANLVISASQLGDSAMYFCAMRERTGTASKLTFGTGTRLQVTL V domain 2: DVKVTQSSRYLVKRTGEKVFLECVQDMDHENMFWYRQDPGLGLRLIYFSYDVKMKEKGDIPEGYSVSREKKERFSLILESASTNQTSMYLCASSQTVQPQHFGDGTRLSILE | 0.45 ratio
B8.2.4 TCR mutant β98P-T (TCR, V domains shown) V domain 1: AQKITQTQPGMFVQEKEAVTLDCTYDTSDPSYGLFWYKQPSSGEMIFLIYQGSYDQQNATEGRYSLNFQKARKSANLVISASQLGDSAMYFCAMRERTGTASKLTFGTGTRLQVTL V domain 2: DVKVTQSSRYLVKRTGEKVFLECVQDMDHENMFWYRQDPGLGLRLIYFSYDVKMKEKGDIPEGYSVSREKKERFSLILESASTNQTSMYLCASSQTVTPQHFGDGTRLSILE | 0.47 ratio
B8.2.4 TCR mutant β98P-I (TCR, V domains shown) V domain 1: AQKITQTQPGMFVQEKEAVTLDCTYDTSDPSYGLFWYKQPSSGEMIFLIYQGSYDQQNATEGRYSLNFQKARKSANLVISASQLGDSAMYFCAMRERTGTASKLTFGTGTRLQVTL V domain 2: DVKVTQSSRYLVKRTGEKVFLECVQDMDHENMFWYRQDPGLGLRLIYFSYDVKMKEKGDIPEGYSVSREKKERFSLILESASTNQTSMYLCASSQTVIPQHFGDGTRLSILE | 0.33 ratio
B8.2.4 TCR mutant β98P-D (TCR, V domains shown) V domain 1: AQKITQTQPGMFVQEKEAVTLDCTYDTSDPSYGLFWYKQPSSGEMIFLIYQGSYDQQNATEGRYSLNFQKARKSANLVISASQLGDSAMYFCAMRERTGTASKLTFGTGTRLQVTL V domain 2: DVKVTQSSRYLVKRTGEKVFLECVQDMDHENMFWYRQDPGLGLRLIYFSYDVKMKEKGDIPEGYSVSREKKERFSLILESASTNQTSMYLCASSQTVDPQHFGDGTRLSILE | 0.8 ratio
B8.2.4 TCR mutant β98P-E (TCR, V domains shown) V domain 1: AQKITQTQPGMFVQEKEAVTLDCTYDTSDPSYGLFWYKQPSSGEMIFLIYQGSYDQQNATEGRYSLNFQKARKSANLVISASQLGDSAMYFCAMRERTGTASKLTFGTGTRLQVTL V domain 2: DVKVTQSSRYLVKRTGEKVFLECVQDMDHENMFWYRQDPGLGLRLIYFSYDVKMKEKGDIPEGYSVSREKKERFSLILESASTNQTSMYLCASSQTVEPQHFGDGTRLSILE | 0.99 ratio
B8.2.4 TCR mutant β97V-W (TCR, V domains shown) V domain 1: AQKITQTQPGMFVQEKEAVTLDCTYDTSDPSYGLFWYKQPSSGEMIFLIYQGSYDQQNATEGRYSLNFQKARKSANLVISASQLGDSAMYFCAMRERTGTASKLTFGTGTRLQVTL V domain 2: DVKVTQSSRYLVKRTGEKVFLECVQDMDHENMFWYRQDPGLGLRLIYFSYDVKMKEKGDIPEGYSVSREKKERFSLILESASTNQTSMYLCASSQTWPPQHFGDGTRLSILE | 0.52 ratio
B8.2.4 TCR mutant β98P-S (TCR, V domains shown) V domain 1: AQKITQTQPGMFVQEKEAVTLDCTYDTSDPSYGLFWYKQPSSGEMIFLIYQGSYDQQNATEGRYSLNFQKARKSANLVISASQLGDSAMYFCAMRERTGTASKLTFGTGTRLQVTL V domain 2: DVKVTQSSRYLVKRTGEKVFLECVQDMDHENMFWYRQDPGLGLRLIYFSYDVKMKEKGDIPEGYSVSREKKERFSLILESASTNQTSMYLCASSQTVSPQHFGDGTRLSILE | 0.94 ratio
B8.2.4 TCR mutant β98P-V (TCR, V domains shown) V domain 1: AQKITQTQPGMFVQEKEAVTLDCTYDTSDPSYGLFWYKQPSSGEMIFLIYQGSYDQQNATEGRYSLNFQKARKSANLVISASQLGDSAMYFCAMRERTGTASKLTFGTGTRLQVTL V domain 2: DVKVTQSSRYLVKRTGEKVFLECVQDMDHENMFWYRQDPGLGLRLIYFSYDVKMKEKGDIPEGYSVSREKKERFSLILESASTNQTSMYLCASSQTVVPQHFGDGTRLSILE | 0.63 ratio
B8.2.4 TCR mutant β98P-C (TCR, V domains shown) V domain 1: AQKITQTQPGMFVQEKEAVTLDCTYDTSDPSYGLFWYKQPSSGEMIFLIYQGSYDQQNATEGRYSLNFQKARKSANLVISASQLGDSAMYFCAMRERTGTASKLTFGTGTRLQVTL V domain 2: DVKVTQSSRYLVKRTGEKVFLECVQDMDHENMFWYRQDPGLGLRLIYFSYDVKMKEKGDIPEGYSVSREKKERFSLILESASTNQTSMYLCASSQTVCPQHFGDGTRLSILE | 1.11 ratio
B8.2.4 TCR mutant β98P-N (TCR, V domains shown) V domain 1: AQKITQTQPGMFVQEKEAVTLDCTYDTSDPSYGLFWYKQPSSGEMIFLIYQGSYDQQNATEGRYSLNFQKARKSANLVISASQLGDSAMYFCAMRERTGTASKLTFGTGTRLQVTL V domain 2: DVKVTQSSRYLVKRTGEKVFLECVQDMDHENMFWYRQDPGLGLRLIYFSYDVKMKEKGDIPEGYSVSREKKERFSLILESASTNQTSMYLCASSQTVNPQHFGDGTRLSILE | 0.41 ratio
B8.2.4 TCR mutant β98P-H (TCR, V domains shown) V domain 1: AQKITQTQPGMFVQEKEAVTLDCTYDTSDPSYGLFWYKQPSSGEMIFLIYQGSYDQQNATEGRYSLNFQKARKSANLVISASQLGDSAMYFCAMRERTGTASKLTFGTGTRLQVTL V domain 2: DVKVTQSSRYLVKRTGEKVFLECVQDMDHENMFWYRQDPGLGLRLIYFSYDVKMKEKGDIPEGYSVSREKKERFSLILESASTNQTSMYLCASSQTVHPQHFGDGTRLSILE | 0.6 ratio

Next, values leading:

TCR Mut RLU/WT RLU | Binder
0.54 ratio | B8.2.4 TCR mutant β97V-Y (TCR, V domains shown) V domain 1: AQKITQTQPGMFVQEKEAVTLDCTYDTSDPSYGLFWYKQPSSGEMIFLIYQGSYDQQNATEGRYSLNFQKARKSANLVISASQLGDSAMYFCAMRERTGTASKLTFGTGTRLQVTL V domain 2: DVKVTQSSRYLVKRTGEKVFLECVQDMDHENMFWYRQDPGLGLRLIYFSYDVKMKEKGDIPEGYSVSREKKERFSLILESASTNQTSMYLCASSQTYPPQHFGDGTRLSILE
0.25 ratio | B8.2.4 TCR mutant β98P-Y (TCR, V domains shown) V domain 1: AQKITQTQPGMFVQEKEAVTLDCTYDTSDPSYGLFWYKQPSSGEMIFLIYQGSYDQQNATEGRYSLNFQKARKSANLVISASQLGDSAMYFCAMRERTGTASKLTFGTGTRLQVTL V domain 2: DVKVTQSSRYLVKRTGEKVFLECVQDMDHENMFWYRQDPGLGLRLIYFSYDVKMKEKGDIPEGYSVSREKKERFSLILESASTNQTSMYLCASSQTVYPQHFGDGTRLSILE
0.73 ratio | B8.2.4 TCR mutant β98P-R (TCR, V domains shown) V domain 1: AQKITQTQPGMFVQEKEAVTLDCTYDTSDPSYGLFWYKQPSSGEMIFLIYQGSYDQQNATEGRYSLNFQKARKSANLVISASQLGDSAMYFCAMRERTGTASKLTFGTGTRLQVTL V domain 2: DVKVTQSSRYLVKRTGEKVFLECVQDMDHENMFWYRQDPGLGLRLIYFSYDVKMKEKGDIPEGYSVSREKKERFSLILESASTNQTSMYLCASSQTVRPQHFGDGTRLSILE
0.83 ratio | B8.2.4 TCR mutant β98P-M (TCR, V domains shown) V domain 1: AQKITQTQPGMFVQEKEAVTLDCTYDTSDPSYGLFWYKQPSSGEMIFLIYQGSYDQQNATEGRYSLNFQKARKSANLVISASQLGDSAMYFCAMRERTGTASKLTFGTGTRLQVTL V domain 2: DVKVTQSSRYLVKRTGEKVFLECVQDMDHENMFWYRQDPGLGLRLIYFSYDVKMKEKGDIPEGYSVSREKKERFSLILESASTNQTSMYLCASSQTVMPQHFGDGTRLSILE
0.67 ratio | B8.2.4 TCR mutant β98P-L (TCR, V domains shown) V domain 1: AQKITQTQPGMFVQEKEAVTLDCTYDTSDPSYGLFWYKQPSSGEMIFLIYQGSYDQQNATEGRYSLNFQKARKSANLVISASQLGDSAMYFCAMRERTGTASKLTFGTGTRLQVTL V domain 2: DVKVTQSSRYLVKRTGEKVFLECVQDMDHENMFWYRQDPGLGLRLIYFSYDVKMKEKGDIPEGYSVSREKKERFSLILESASTNQTSMYLCASSQTVLPQHFGDGTRLSILE
0.47 ratio | B8.2.4 TCR mutant β98P-K (TCR, V domains shown) V domain 1: AQKITQTQPGMFVQEKEAVTLDCTYDTSDPSYGLFWYKQPSSGEMIFLIYQGSYDQQNATEGRYSLNFQKARKSANLVISASQLGDSAMYFCAMRERTGTASKLTFGTGTRLQVTL V domain 2: DVKVTQSSRYLVKRTGEKVFLECVQDMDHENMFWYRQDPGLGLRLIYFSYDVKMKEKGDIPEGYSVSREKKERFSLILESASTNQTSMYLCASSQTVKPQHFGDGTRLSILE
0.96 ratio | B8.2.4 TCR mutant β98P-F (TCR, V domains shown) V domain 1: AQKITQTQPGMFVQEKEAVTLDCTYDTSDPSYGLFWYKQPSSGEMIFLIYQGSYDQQNATEGRYSLNFQKARKSANLVISASQLGDSAMYFCAMRERTGTASKLTFGTGTRLQVTL V domain 2: DVKVTQSSRYLVKRTGEKVFLECVQDMDHENMFWYRQDPGLGLRLIYFSYDVKMKEKGDIPEGYSVSREKKERFSLILESASTNQTSMYLCASSQTVFPQHFGDGTRLSILE
0.5 ratio | B8.2.4 TCR mutant β98P-A (TCR, V domains shown) V domain 1: AQKITQTQPGMFVQEKEAVTLDCTYDTSDPSYGLFWYKQPSSGEMIFLIYQGSYDQQNATEGRYSLNFQKARKSANLVISASQLGDSAMYFCAMRERTGTASKLTFGTGTRLQVTL V domain 2: DVKVTQSSRYLVKRTGEKVFLECVQDMDHENMFWYRQDPGLGLRLIYFSYDVKMKEKGDIPEGYSVSREKKERFSLILESASTNQTSMYLCASSQTVAPQHFGDGTRLSILE
